Data as given in US20250340902A1, “GENE THERAPY FOR BVES-RELATED DISORDERS” (OHIO STATE INNOVATION FOUNDATION, priority 2022, published 2025).

Legend:
[1] = molecular target: Trimeric intracellular cation channel type A (Mus musculus) (UniProt Q3TMP8); experiment: anti-HA co-IP from muscle, MS; CTRL 2
[2] = molecular target: PDZ and LIM domain protein 5 (Mus musculus) (UniProt Q8CI51); experiment: anti-HA co-IP from muscle, MS; CTRL 2
[3] = molecular target: Succinate--CoA ligase [ADP-forming] subunit beta, mitochondrial (Mus musculus) (UniProt Q9Z2I9); experiment: anti-HA co-IP from muscle, MS; CTRL 2
[4] = molecular target: Caveolae-associated protein 1 (Mus musculus) (UniProt O54724); experiment: anti-HA co-IP from muscle, MS; CTRL 2
[5] = molecular target: Spectrin beta chain, erythrocytic (Mus musculus) (UniProt P15508); experiment: anti-HA co-IP from muscle, MS; CTRL 2
[6] = molecular target: Phosphorylase b kinase gamma catalytic chain, skeletal muscle/heart isoform (Mus musculus) (UniProt P07934); experiment: anti-HA co-IP from muscle, MS; CTRL 2
[7] = molecular target: Calcium/calmodulin-dependent protein kinase type II subunit alpha (Mus musculus) (UniProt P11798); experiment: anti-HA co-IP from muscle, MS; CTRL 2
[8] = molecular target: Serine/arginine repetitive matrix protein 2 (Mus musculus) (UniProt Q8BTI8); experiment: anti-HA co-IP from muscle, MS; CTRL 2
[9] = molecular target: Tripartite motif-containing protein 72 (Mus musculus) (UniProt Q1XH17); experiment: anti-HA co-IP from muscle, MS; CTRL 2
[10] = molecular target: T-complex protein 1 subunit beta (Mus musculus) (UniProt P80314); experiment: anti-HA co-IP from muscle, MS; CTRL 2
[11] = molecular target: Poly(rC)-binding protein 2 (Mus musculus) (UniProt Q61990); experiment: anti-HA co-IP from muscle, MS; CTRL 2
[12] = molecular target: Very-long-chain enoyl-CoA reductase (Mus musculus) (UniProt Q9CY27); experiment: anti-HA co-IP from muscle, MS; CTRL 2
[13] = molecular target: Voltage-dependent L-type calcium channel subunit beta-1 (Mus musculus) (UniProt Q8R3Z5); experiment: anti-HA co-IP from muscle, MS; CTRL 2
[14] = molecular target: Unconventional myosin-Ic (Mus musculus) (UniProt Q9WTI7); experiment: anti-HA co-IP from muscle, MS; CTRL 1
[15] = molecular target: Cullin-associated NEDD8-dissociated protein 2 (Mus musculus) (UniProt Q6ZQ73); experiment: anti-HA co-IP from muscle, MS; CTRL 1
[16] = molecular target: Vinculin (Mus musculus) (UniProt Q64727); experiment: anti-HA co-IP from muscle, MS; CTRL 1
[17] = molecular target: Alpha-sarcoglycan (Mus musculus) (UniProt P82350); experiment: anti-HA co-IP from muscle, MS; CTRL 1
[18] = molecular target: Caveolae-associated protein 2 (Mus musculus) (UniProt Q63918); experiment: anti-HA co-IP from muscle, MS; CTRL 1
[19] = molecular target: Glypican-1 (Mus musculus) (UniProt Q9QZF2); experiment: anti-HA co-IP from muscle, MS; CTRL 1
[20] = molecular target: Collagen alpha-2(IV) chain (Mus musculus) (UniProt P08122); experiment: anti-HA co-IP from muscle, MS; CTRL 1
[21] = molecular target: Caveolin-1 (Mus musculus) (UniProt P49817); experiment: anti-HA co-IP from muscle, MS; CTRL 1
[22] = molecular target: Ribosomal protein S6 kinase alpha-3 (Mus musculus) (UniProt P18654); experiment: anti-HA co-IP from muscle, MS; CTRL 1
[23] = molecular target: Alpha-1-syntrophin (Mus musculus) (UniProt Q61234); experiment: anti-HA co-IP from muscle, MS; CTRL 1
[24] = molecular target: Caveolae-associated protein 3 (Mus musculus) (UniProt Q91VJ2); experiment: anti-HA co-IP from muscle, MS; CTRL 1
[25] = molecular target: Protein-cysteine N-palmitoyltransferase HHAT-like protein (Mus musculus) (UniProt Q9D1G3); experiment: anti-HA co-IP from muscle, MS; CTRL 1

Tripartite motif-containing protein 72 (Mus musculus), sequence (Q1XH17 whole entry): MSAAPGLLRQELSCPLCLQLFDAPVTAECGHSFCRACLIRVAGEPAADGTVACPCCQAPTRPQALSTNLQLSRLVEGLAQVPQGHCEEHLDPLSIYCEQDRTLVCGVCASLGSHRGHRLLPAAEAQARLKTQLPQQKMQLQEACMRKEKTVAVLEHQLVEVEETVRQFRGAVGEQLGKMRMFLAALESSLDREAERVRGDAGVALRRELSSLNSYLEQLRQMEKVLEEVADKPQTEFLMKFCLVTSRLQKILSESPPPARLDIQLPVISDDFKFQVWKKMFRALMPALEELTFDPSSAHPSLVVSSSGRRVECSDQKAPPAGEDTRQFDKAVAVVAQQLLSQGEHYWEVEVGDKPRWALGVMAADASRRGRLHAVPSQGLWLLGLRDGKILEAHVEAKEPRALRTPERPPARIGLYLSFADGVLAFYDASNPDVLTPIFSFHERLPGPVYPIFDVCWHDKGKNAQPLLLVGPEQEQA
Cullin-associated NEDD8-dissociated protein 2 (Mus musculus), sequence (Q6ZQ73 2-1235 limits assumed): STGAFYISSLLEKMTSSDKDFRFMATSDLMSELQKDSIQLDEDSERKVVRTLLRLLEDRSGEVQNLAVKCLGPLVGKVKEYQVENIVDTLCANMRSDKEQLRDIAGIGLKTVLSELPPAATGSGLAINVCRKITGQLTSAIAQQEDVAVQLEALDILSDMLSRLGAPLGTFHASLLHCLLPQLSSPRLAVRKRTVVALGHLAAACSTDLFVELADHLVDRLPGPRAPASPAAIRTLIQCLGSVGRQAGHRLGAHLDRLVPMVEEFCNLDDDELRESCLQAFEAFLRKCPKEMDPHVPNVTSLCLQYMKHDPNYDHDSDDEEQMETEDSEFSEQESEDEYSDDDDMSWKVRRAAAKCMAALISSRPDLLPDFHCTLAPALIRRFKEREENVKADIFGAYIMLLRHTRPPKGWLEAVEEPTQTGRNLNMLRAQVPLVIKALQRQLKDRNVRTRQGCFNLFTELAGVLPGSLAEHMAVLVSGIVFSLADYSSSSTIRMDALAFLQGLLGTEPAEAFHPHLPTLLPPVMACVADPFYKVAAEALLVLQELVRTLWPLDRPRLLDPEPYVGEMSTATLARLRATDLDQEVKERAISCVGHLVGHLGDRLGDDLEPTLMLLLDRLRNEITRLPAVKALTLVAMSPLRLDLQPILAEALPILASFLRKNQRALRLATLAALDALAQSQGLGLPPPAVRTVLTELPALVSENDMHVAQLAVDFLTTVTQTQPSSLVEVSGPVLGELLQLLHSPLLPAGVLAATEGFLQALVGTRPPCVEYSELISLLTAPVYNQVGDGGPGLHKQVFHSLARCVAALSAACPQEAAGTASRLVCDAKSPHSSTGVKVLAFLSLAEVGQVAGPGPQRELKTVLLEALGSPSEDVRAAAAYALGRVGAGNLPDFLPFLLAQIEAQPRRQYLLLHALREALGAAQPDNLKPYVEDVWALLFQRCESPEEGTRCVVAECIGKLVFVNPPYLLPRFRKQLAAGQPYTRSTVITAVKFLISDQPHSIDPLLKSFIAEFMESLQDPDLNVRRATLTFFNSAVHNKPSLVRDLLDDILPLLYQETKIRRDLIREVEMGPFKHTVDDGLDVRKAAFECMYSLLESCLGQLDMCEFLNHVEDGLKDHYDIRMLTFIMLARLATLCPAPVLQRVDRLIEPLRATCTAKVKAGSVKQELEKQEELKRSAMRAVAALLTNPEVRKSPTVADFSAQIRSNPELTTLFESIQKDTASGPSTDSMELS
Trimeric intracellular cation channel type A (Mus musculus), sequence (Q3TMP8 whole entry, the tested form may be a part): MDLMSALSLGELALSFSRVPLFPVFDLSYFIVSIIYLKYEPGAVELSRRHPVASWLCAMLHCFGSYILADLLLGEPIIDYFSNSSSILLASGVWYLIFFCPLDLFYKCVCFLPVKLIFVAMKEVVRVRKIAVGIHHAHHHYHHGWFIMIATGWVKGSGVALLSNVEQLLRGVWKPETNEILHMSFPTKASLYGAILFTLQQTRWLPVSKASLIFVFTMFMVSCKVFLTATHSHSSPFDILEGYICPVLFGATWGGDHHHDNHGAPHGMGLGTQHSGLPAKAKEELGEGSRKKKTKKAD
Voltage-dependent L-type calcium channel subunit beta-1 (Mus musculus), sequence (Q8R3Z5 whole entry): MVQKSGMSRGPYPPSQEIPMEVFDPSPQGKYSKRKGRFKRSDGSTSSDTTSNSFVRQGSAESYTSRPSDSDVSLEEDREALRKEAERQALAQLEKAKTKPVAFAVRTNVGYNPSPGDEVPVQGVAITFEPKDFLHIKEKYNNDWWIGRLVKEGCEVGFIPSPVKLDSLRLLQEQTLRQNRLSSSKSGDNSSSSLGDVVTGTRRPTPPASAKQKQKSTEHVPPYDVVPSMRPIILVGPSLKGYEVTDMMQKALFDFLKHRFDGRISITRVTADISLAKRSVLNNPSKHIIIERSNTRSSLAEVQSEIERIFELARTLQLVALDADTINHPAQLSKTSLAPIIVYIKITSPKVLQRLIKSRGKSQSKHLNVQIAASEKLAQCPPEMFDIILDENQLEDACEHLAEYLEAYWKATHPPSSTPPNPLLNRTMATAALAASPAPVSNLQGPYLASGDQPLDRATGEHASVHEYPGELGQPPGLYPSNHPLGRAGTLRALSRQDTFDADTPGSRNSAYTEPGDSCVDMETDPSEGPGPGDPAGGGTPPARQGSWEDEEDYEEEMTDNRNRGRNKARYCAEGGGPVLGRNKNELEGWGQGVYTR
Spectrin beta chain, erythrocytic (Mus musculus), sequence (P15508 whole entry, canonical isoform): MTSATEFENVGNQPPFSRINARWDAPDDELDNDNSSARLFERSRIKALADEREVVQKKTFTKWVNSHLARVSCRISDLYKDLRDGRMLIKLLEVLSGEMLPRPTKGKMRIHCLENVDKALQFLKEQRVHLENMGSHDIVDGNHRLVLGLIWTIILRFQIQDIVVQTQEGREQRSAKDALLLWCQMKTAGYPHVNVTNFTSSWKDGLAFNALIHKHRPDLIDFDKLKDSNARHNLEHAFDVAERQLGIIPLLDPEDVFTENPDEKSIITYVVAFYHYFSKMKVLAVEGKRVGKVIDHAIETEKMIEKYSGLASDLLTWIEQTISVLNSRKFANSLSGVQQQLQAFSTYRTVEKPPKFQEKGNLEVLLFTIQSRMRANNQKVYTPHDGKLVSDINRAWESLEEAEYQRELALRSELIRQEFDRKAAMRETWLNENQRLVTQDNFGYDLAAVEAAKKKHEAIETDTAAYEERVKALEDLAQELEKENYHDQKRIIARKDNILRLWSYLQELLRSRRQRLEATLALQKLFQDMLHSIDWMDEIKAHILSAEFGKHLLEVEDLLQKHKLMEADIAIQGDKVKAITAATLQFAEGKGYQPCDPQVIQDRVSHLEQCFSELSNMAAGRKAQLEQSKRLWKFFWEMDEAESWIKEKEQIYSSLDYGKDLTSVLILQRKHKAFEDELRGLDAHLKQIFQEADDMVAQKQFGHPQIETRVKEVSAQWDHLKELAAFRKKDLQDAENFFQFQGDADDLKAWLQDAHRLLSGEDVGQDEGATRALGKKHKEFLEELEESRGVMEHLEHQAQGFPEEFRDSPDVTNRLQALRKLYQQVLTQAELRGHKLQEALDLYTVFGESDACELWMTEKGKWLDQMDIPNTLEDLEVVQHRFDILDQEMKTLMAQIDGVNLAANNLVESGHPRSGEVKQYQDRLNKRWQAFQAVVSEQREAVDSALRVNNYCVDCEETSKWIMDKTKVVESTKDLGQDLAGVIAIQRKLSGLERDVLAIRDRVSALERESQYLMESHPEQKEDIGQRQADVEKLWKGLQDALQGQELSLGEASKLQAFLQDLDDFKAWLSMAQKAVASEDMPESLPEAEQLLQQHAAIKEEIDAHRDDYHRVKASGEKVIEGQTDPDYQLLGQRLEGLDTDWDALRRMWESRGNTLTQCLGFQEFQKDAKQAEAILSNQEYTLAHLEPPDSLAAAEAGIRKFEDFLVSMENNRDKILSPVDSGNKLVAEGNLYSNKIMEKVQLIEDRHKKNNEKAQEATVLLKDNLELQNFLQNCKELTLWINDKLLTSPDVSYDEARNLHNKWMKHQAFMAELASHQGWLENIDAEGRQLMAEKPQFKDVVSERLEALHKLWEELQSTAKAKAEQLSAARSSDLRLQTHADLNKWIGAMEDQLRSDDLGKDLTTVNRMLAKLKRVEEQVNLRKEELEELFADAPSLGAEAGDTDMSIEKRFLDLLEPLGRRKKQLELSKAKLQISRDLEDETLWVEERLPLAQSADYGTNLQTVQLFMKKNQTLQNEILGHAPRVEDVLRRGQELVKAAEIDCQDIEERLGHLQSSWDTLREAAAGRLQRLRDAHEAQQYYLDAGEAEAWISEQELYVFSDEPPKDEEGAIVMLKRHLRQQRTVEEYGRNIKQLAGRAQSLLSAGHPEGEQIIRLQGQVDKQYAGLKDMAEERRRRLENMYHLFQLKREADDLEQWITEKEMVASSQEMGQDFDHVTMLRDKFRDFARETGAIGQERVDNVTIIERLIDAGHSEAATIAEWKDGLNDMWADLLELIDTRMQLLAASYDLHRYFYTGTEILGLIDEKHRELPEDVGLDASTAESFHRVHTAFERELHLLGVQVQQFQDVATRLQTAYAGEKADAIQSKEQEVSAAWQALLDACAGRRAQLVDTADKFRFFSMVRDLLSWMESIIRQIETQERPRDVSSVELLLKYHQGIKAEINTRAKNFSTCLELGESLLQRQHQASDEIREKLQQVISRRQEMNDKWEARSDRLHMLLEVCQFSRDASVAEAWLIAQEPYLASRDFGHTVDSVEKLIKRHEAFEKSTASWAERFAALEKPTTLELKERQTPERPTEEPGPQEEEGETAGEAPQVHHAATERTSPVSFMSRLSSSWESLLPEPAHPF
Caveolin-1 (Mus musculus), sequence (P49817 2-178 limits assumed): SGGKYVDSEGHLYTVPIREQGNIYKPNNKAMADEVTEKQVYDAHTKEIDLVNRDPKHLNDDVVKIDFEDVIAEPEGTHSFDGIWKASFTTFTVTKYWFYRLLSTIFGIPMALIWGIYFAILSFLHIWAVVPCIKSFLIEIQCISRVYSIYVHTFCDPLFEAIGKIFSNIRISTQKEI

## human BVES fused with 3xHA tag (from UniProt Q8NE79 1-360)
[1]
  AAV9-BVES-HA (IP-MS count): 7
[2]
  AAV9-BVES-HA (IP-MS count): 7
[3]
  AAV9-BVES-HA (IP-MS count): 8
[4]
  AAV9-BVES-HA (IP-MS count): 19
[5]
  AAV9-BVES-HA (IP-MS count): 41
[6]
  AAV9-BVES-HA (IP-MS count): 6
[7]
  AAV9-BVES-HA (IP-MS count): 11
[8]
  AAV9-BVES-HA (IP-MS count): 11
[9]
  AAV9-BVES-HA (IP-MS count): 6
[10]
  AAV9-BVES-HA (IP-MS count): 6
[11]
  AAV9-BVES-HA (IP-MS count): 6
[12]
  AAV9-BVES-HA (IP-MS count): 9
[13]
  AAV9-BVES-HA (IP-MS count): 6
[14]
  AAV9-BVES-HA (IP-MS count): 7
[15]
  AAV9-BVES-HA (IP-MS count): 16
[16]
  AAV9-BVES-HA (IP-MS count): 5
[17]
  AAV9-BVES-HA (IP-MS count): 5
[18]
  AAV9-BVES-HA (IP-MS count): 12
[19]
  AAV9-BVES-HA (IP-MS count): 11
[20]
  AAV9-BVES-HA (IP-MS count): 5
[21]
  AAV9-BVES-HA (IP-MS count): 8
[22]
  AAV9-BVES-HA (IP-MS count): 20
[23]
  AAV9-BVES-HA (IP-MS count): 11
[24]
  AAV9-BVES-HA (IP-MS count): 11
[25]
  AAV9-BVES-HA (IP-MS count): 5
